Consider eleven molecules from patent US20260337282 (published 2026).

T1: mouse CCR8 (mouse)
T1 chain: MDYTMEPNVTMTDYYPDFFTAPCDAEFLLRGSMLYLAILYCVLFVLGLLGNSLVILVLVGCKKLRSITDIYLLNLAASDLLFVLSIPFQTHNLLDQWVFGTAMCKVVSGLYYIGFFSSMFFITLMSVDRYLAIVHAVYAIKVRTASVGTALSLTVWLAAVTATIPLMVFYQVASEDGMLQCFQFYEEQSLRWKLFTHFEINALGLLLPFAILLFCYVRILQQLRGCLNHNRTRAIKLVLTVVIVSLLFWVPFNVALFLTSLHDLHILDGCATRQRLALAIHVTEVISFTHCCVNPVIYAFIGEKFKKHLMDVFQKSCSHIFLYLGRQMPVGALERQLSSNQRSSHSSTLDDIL

B1: 11F5-N3S-Y5V-11F5 (antibody, V domains shown)
VH: EVQLVESGGGVVQPGRSLRLSCAASGFTFSSYVVHWVRQAPGKGLEWVAVISYDGDNKFYADSVKGRFTISRDNSKNTLYLQMNSLRTEDTAVYYCARGRSYVYYYGLDVWGQGTTVTVSS
VL: DIVMTQTPLSLSVTPGQPASISCKSSQSLLYSDGKTYLYWYLQKAGQPPQLLIYEVSNRFSGVPDRFSGSGSGTDFTLKISRVEAEDVGVFYCMQSLKVPPTFGQGTKVDIK
B2: 11F5-Y6N-11F5 (antibody, V domains shown)
VH: B1 VH with S101N, V103Y, Y104N
VL: B1 VL
B3: 11F5-N3S-11F5 (antibody, V domains shown)
VH: B1 VH with V103Y
VL: B1 VL
B4: 11F5-Y5V-Y6N-11F5 (antibody, V domains shown)
VH: B1 VH with S101N, Y104N
VL: B1 VL
B5: 11F5-N3S-Y6N-11F5 (antibody, V domains shown)
VH: B1 VH with V103Y, Y104N
VL: B1 VL
B6: 11F5-Y5V-11F5 (antibody, V domains shown)
VH: B1 VH with S101N
VL: B1 VL
B7: 11F5-N3S-Y5V-Y6N-11F5 (antibody, V domains shown)
VH: B1 VH with Y104N
VL: B1 VL
B8: 11B12-11F8 (antibody, V domains shown)
VH: QVQLVESGGGVVQPGRSLRLSCAASGFSFSSYVMHWVRQAPGKGLEWVAVISYDGSDKYYADSVKGRFTISRDNSKNTLFLQMNSLRPEDTAVYYCARGRGYRYGQSYYYGMDVWGQGTTVTVSS
VL: B1 VL with A45P, Q50H, D65K, F91Y, L97V, V99I, P101L, Q105G, D110E
B9: 11F5-SG-11F5-SG (antibody, V domains shown)
VH: B1 VH with D54S, S101N, V103Y
VL: B1 VL with D33S
B10: 11B12-DNA-11B12 (antibody, V domains shown)
VH: B8 VH with S75A
VL: B1 VL with A45P, L51I, Y54F, F91Y, L97I, V99L, P101L, Q105G, D110E
B11: 11B12-SG-11F8 (antibody, V domains shown)
VH: B8 VH with D54S
VL: B1 VL with A45P, Q50H, D65K, F91Y, L97V, V99I, P101L, Q105G, D110E

Broadly, the EC50 is the concentration giving half of the maximal effect. Read a high EC50 as a less potent agent.

Changes are numbered by the printed parent chain. Names may count otherwise.

human CCR8 (human), sequence (chain, as listed by the source): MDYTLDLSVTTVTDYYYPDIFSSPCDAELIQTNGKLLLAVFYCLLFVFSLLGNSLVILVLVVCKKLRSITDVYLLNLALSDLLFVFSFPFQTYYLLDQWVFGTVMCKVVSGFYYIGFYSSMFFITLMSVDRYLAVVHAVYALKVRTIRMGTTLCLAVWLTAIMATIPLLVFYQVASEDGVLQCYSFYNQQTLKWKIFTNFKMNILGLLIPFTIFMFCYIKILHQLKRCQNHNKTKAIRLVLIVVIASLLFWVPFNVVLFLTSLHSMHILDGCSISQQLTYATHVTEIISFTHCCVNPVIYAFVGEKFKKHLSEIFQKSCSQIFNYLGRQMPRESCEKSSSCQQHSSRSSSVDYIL

One assay has as its target human CCR8 (human). Briefly: FACS. In general terms: In flow cytometry, cells or beads pass a laser one at a time.
Molecule B1 returned an EC50 of 0.228 µg/mL.

B2 came in with an EC50 of 0.254 µg/mL.

Take B3: a half-maximal effect (EC50) was put at 0.168 µg/mL.

On to B4, for which a half-maximal effect (EC50) was put at 0.592 µg/mL.

Regarding B5, the concentration giving a half-maximal response (EC50) came out at 0.174 µg/mL.

B6 returned an EC50 of 0.714 µg/mL.

The molecule B7 registered an EC50 of 0.21 µg/mL.

The next assay addresses T1, mouse CCR8. Briefly: FACS.
On to B8, for which the EC50 was determined as 0.1 µg/mL.

Consider B9, for which a half-maximal response (EC50) required 0.069 µg/mL.

For B10, the EC50 worked out at 0.084 µg/mL.

Regarding B11, the 50% effective concentration (EC50) was found to be 0.055 µg/mL.

For the next assay, the target named is T1, mouse CCR8. Description: FACS. The source holds these as a separate data set.
Take B1: it took 0.129 µg/mL to reach a half-maximal effect (EC50).

In the case of B2, a half-maximal response (EC50) required 0.198 µg/mL.

In the case of B3, a half-maximal effect (EC50) was put at 0.119 µg/mL.

Turning to B4, the midpoint of the response, the EC50, lay at 0.546 µg/mL.

B5 returned an EC50 of 0.105 µg/mL.

Molecule B6 returned an EC50 of 0.762 µg/mL.

In turn, B7 showed an EC50 of 0.141 µg/mL.

A further assay concerns the target human CCR8 (human). Description: FACS. This is another data set of the same source.
On to B8, for which the EC50 came out at 0.152 µg/mL.

Molecule B9 returned an EC50 of 0.033 µg/mL.

Turning to B10, the EC50 was found to be 0.144 µg/mL.

With B11, the EC50 amounted to 0.051 µg/mL.
